Where a chain is given by its changes, count along the chain named.
B1: CD23 (receptor)
chain: MELQVSSGFVCNTCPEKWINFQRKCYYFGKGTKQWVHARYACDDMEGQLVSIHSPEEQDFLTKHASHTGSWIGLRNLDLKGEFIWVDGSHVDYSNWAPGEPTSRSQGEDCVMMRGSGRWNDAFCDRKLGAWVCDRLATCTPPASEGSAESMGPDSRPDPDGRLPTPSAPLHS
B2: stabilized p5E8 pIEH252 scFv (scFv)
scFv: DIQMTQSPSSLSASVGDRVTITCRASQDIRYYLNWYQQKPGKAPKLLIYSASSLQSGVPSRFSGSGSGTEFTLTVSSLQPEDAATYYCLQVYSTPRTFGQGTKVEIKGGGGSGGGGSGGGGSEVQLVQSGGGLAKPGGSLRLSCAASGFRFTFSNYYMDWVRQAPGQGLEWVGRISSSGDPTWYADSVKGRFTISRDNAKNTLFLQMNSLRAEDTAVYYCASLTTGSDSWGQGVLVTVSS
B3: stabilized p5E8 pIEH246 scFv (scFv)
scFv: B2 scFv with S154N, P181H, D197E

What was measured:
IEH-245 [1] = test: Biacore
IEH-248 [2] = test: Biacore
IEH-243 [3] = test: Biacore
IEH-251 [4] = test: Biacore
IEH-241 [5] = test: Biacore
IEH-250 [6] = test: Biacore
IEH-245 [7] = test: DELFIA
IEH-248 [8] = test: DELFIA
IEH-243 [9] = test: DELFIA
IEH-251 [10] = test: DELFIA
IEH-241 [11] = test: DELFIA
IEH-239 = test: DELFIA
IEH-250 [12] = test: DELFIA
[13] = biological target: T1, soluble CD23 antigen (soluble and monomeric form) (UniProt P06734 150-321); test: Biacore
T1 chain: B1 chain

[14] = biological target: T1, soluble CD23 antigen (soluble and …); test: DELFIA
[15] = biological target: T1, soluble CD23 antigen (soluble and …); test: FRET competition

Binder | Kd (IEH-245 [1]) [nM] | Kd (IEH-248 [2]) [nM] | Kd (IEH-243 [3]) [nM] | Kd (IEH-251 [4]) [nM] | Kd (IEH-241 [5]) [nM] | Kd (IEH-250 [6]) [nM] | Kd (IEH-245 [7]) [nM] | Kd (IEH-248 [8]) [nM] | Kd (IEH-243 [9]) [nM] | Kd (IEH-251 [10]) [nM] | Kd (IEH-241 [11]) [nM] | Kd (IEH-239) [nM] | Kd (IEH-250 [12]) [nM] | Kd [13] [nM] | Kd [14] [nM] | IC50 [15] [µg/mL]
B1 | 1.1 | 1.3 | 2.8 | 3.2 | 4.6 | 4.3 | 1 | 2.4 | 1.2 | 1.5 | 1.2 | 3 | 2.6 |  |  | 
B2 |  |  |  |  |  |  |  |  |  |  |  |  |  | 0.8 | 1.2 | 0.052
B3 |  |  |  |  |  |  |  |  |  |  |  |  |  | 0.9 | 1 | 0.061

Reference: patent US20090155255A1 (published 2009)
